Assay results published in US20140128287, “SYSTEMS FOR INDUCTION OF GENE EXPRESSION AND PROTEIN DEPLETION IN YEAST” (THE TRUSTEES OF PRINCETON UNIVERSITY, published 2014).

Tests used:
[1] = biological target: 4ZEV (designed four zinc finger - estrogen receptor - VP16 activator) (synthetic construct); assay: cell_activity; yeast reporter, modified GAL1 promoter, 15 min after beta-estradiol; conditions: tags: 4Z DBD replaces Gal4 DBD of GEV
[2] = biological target: ZEV (Zif268 zinc fingers - estrogen receptor - VP16 activator) (synthetic construct, UniProt P18146 SEQ:1-87); assay: as above

B1: 4Z in vivo target (three pairs of sites) (dsDNA)
DNA 1: GCGGCGGAGGAGTGCGGCGGAGGAGGAGCGGCGGAGGAGTGCGGCGGAGGAGGAGCGGCGGAGGAGTGCGGCGGAGGAG
DNA 2: CTCCTCCGCCGCACTCCTCCGCCGCTCCTCCTCCGCCGCACTCCTCCGCCGCTCCTCCTCCGCCGCACTCCTCCGCCGC
In the case of B1, the activity [1] is reported as > 50 fold induction of GFP transcripts.

B2: Zif in vivo target (three pairs of sites) (dsDNA)
DNA 1: GCGTGGGCGTGCGTGGGCGGGCGTGGGCGTGCGTGGGCGGGCGTGGGCGTGCGTGGGCG
DNA 2: CGCCCACGCACGCCCACGCCCGCCCACGCACGCCCACGCCCGCCCACGCACGCCCACGC
With B2 the activity [2] was > 50 fold induction of GFP transcripts.
